Reference: publication PMC12499889, “Voltage-matrix nanopore profiling for the discrimination of protein mixtures”

Target: carcinoembryonic antigen (CEA) (UniProt P06731 35-685)
Assay: solid-state nanopore (single-molecule); 3.6 M LiCl; 10 nM CEA, 1 uM aptamer; shift in signal distribution; 3.6 M LiCl, 10 mM HEPES-KOH pH 8.0; 1 uM aptamer incubated with 10 nM CEA for 1 h; temperature not stated; nanopore at -50 to -300 mV
Conditions: protein: commercial

Sequence of carcinoembryonic antigen (CEA) (P06731 35-685): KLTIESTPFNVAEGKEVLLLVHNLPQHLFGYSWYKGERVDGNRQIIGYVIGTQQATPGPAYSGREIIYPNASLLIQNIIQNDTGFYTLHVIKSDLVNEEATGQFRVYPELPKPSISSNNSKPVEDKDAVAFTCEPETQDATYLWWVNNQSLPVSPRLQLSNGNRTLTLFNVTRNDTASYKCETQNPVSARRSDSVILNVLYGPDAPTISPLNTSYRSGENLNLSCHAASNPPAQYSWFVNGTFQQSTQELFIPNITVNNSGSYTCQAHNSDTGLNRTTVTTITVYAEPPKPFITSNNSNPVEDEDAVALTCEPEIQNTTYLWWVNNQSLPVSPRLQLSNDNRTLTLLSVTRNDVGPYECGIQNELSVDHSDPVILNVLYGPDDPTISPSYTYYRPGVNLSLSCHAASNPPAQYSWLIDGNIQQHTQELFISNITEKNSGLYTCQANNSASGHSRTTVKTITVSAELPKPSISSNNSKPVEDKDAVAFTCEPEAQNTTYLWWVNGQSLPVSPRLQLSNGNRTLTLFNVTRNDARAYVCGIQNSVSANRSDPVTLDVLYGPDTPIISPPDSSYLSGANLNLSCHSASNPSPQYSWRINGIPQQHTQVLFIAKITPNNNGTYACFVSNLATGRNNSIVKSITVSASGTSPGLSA

B1: CEA DNA aptamer (ssDNA)
DNA: TCGCGCGAGTCGTCTGGGAGCTACGTTTAGCGAGTCCGACGCTCGGTGCCTCTTCGGGAGGACGATGCGG
Does B1 bind?
Result: binds
